Data: patent US20220025056A1 (INNATE PHARMA, published 2022)

Assays:
[1] = molecular target: T1, anchored ILT2 D2 domain protein (human); assay: flow cytometry, CHO cells with anchored ILT2 domain proteins
T1 construct: on CHO cells; the entry includes leader remnant, V5 tag and CD24 GPI anchor signal

[2] = molecular target: T2, anchored ILT2 D4 domain protein (human, UniProt Q8NHL6 322-650); assay: as above
T2 construct: on CHO cells; the entry includes leader remnant, V5 tag, and the ILT2 transmembrane and cytoplasmic parts
T2 sequence (Q8NHL6 other isoform, or with tags, fused parts or gaps limits assumed): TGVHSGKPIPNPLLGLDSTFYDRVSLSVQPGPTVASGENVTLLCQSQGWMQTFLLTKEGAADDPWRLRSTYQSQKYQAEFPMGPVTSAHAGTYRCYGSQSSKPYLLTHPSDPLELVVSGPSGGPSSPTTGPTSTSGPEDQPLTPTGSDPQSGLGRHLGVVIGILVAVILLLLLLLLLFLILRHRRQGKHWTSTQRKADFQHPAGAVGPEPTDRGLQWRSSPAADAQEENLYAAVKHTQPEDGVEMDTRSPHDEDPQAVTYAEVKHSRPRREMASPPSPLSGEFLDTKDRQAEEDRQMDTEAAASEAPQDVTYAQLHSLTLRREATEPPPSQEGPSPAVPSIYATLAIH

T1 sequence (chain, as listed by the source limits assumed): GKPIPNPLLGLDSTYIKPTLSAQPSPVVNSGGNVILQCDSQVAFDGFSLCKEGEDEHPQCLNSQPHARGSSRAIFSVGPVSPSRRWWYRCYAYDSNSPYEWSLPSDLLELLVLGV

binding result [1]	binding result [2]	Binder
no binding	no binding	3A7A (antibody, human IgG1, V domains shown) VH: QVQLKESGPELVKPGTSVKISCKASGYNFRNYYIQWVKQRPGQGLEWIGWIFPGNNETNYNEKFKGKATLSADTSSTTAYMQLSSLTSEDSAVYFCARSWNYDARWGYWGQGTTVTVSS VL: DVVMTQTPASLAVSLGQRATISCRASEIIDNYGISFIHWYQQKPGQPPKLLIYRASNLESGIPARFSGSGSRTDSTLTINPVGADDVATYYCQQSNEDPFTFGSGTKLELK
no binding	no binding	1E4C (antibody, human IgG1, V domains shown) VH: QRELQQSGPELVKPGASVNISCKASGYSFTNHYINWVKQRPGQGLEWIGWIFPGNGDTNYNEKFKGKATLTADTSSSTAYMQLSSLTSEDSAVYFCARTWNYDARWGYWGQGTTVTVSS VL: DVVMTQTPAFLAVSLGQRATISCRASESIDSYGISFMHWYQQKPGQPPKVLIYRTSNLESGIPARFSGSGSRTDFTLTINPVEADDVATYYCQQSNEDPFTFGSGTKLEIK
